Assay results published in article PMC3715890.

B1: EMSA HRE probe (human EPO enhancer) (dsDNA)
DNA 1: GGCTGGGCCTACGTGCTGTCTCACACAGCC
DNA 2: GGCTGTGTGAGACAGCACGTAGGCCCAGCC
B2: unlabelled HRE competitor DNA (dsDNA)
DNA 1: B1 DNA 1
DNA 2: B1 DNA 2

Columns and labels:
[1] = target: T1, HIF-1α 1-350;HIF-1β (ARNT) 1-474 (human?;human?, UniProt Q16665;P27540 1-350;1-474, |); assay: EMSA; EMSA: Tris-HCl (concentration and pH not in material), 50 mM KCl, 50 mM NaCl, 5 mM DTT, 1 mM MgCl2, 1 mM EDTA, 10% glycerol, 5 µg BSA, 25 ng poly dI-dC; 30 min
[2] = target: HIF-2α (EPAS1) 1-351;HIF-1β (ARNT) 1-474 (human?;human?, UniProt Q99814;P27540 1-351;1-474, |); assay: as above
[3] = target: T1, HIF-1α 1-350;HIF-1β (ARNT) 1-474; assay: competition; unlabelled DNA titrated against labelled probe N1 (EMSA); EMSA: Tris-HCl (concentration and pH not in material), 50 mM KCl, 50 mM NaCl, 5 mM DTT, 1 mM MgCl2, 1 mM EDTA, 10% glycerol, 5 µg BSA, 25 ng poly dI-dC; 30 min

Binder	binding result [1]	binding result [2]	binding result [3]
B1	binds	binds	–
B2	–	–	binds
